From US20230312755A1 (ANGITIA, published 2023)

T1: human Sclerostin (human, UniProt Q9BQB4 24-213)
T1 sequence: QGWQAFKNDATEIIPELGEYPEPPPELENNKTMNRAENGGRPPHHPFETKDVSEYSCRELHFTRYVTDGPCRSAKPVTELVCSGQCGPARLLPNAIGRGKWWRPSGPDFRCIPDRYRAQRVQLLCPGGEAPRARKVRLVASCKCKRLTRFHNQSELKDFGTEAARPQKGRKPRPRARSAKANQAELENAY

T2: His-tagged human Sclerostin (NCBI reference No. NP_079513.1) (human, UniProt Q9BQB4 24-213)
T2 construct: also called mouse His-tagged human Sclerostin; not shown: His tag
T2 sequence: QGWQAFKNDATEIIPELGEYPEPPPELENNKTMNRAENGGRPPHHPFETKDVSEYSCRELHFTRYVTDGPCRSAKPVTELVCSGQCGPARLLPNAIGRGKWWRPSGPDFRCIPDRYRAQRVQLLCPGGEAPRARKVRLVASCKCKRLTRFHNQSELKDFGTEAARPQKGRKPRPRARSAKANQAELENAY


Columns and labels:
human Sclerostin = target: T1, human Sclerostin; assay: cell-based or functional assay
[1] = target: T2, His-tagged human Sclerostin (NCBI …); assay: ELISA, plate coated with His-tagged human Sclerostin
Experimental: The ability of antibodies to specifically bind Sclerostin was determined by an ELISA capture assay. Plates were coated, in a 96-well half-area, with 100 μl/well of mouse His-tagged human Sclerostin (NCBI reference No. is NP_079513.1) [[…]], in coating buffer (PBS, pH 7.4), and incubated at RT for one hour, or 4° C. overnight. The plates were washed once with 100 μl/well of washing solution (PBS containing 0.2% Tween20, BIO-RAD). Plates were then incubated in blocking solution (PBS containing 1% BSA, 1% goat serum and 0.5% Tween20; 100 μl/well) for one hour at room temperature (RT). Anti-Sclerostin antibodies at various concentrations (1000, 333.3, 111.1, 37.0, 12.3, 4.1, 1.4, 0.5, 0.15, 0.05 ng/ml), a positive control antibody Romosozumab or non-Sclerostin related IgG (human or rat IgG, negative control), were then added to each well in 20 μl/well of blocking solution, and plates were incubated at RT for one hour. NeutrAvidin HRP (Pierce, Catalog #31001) diluted in blocking solution (1:50,000 dilution) was added at to each well ([…]), and the plates were incubated at RT for one hour prior to three washes with […] of washing solution. SuperSignal ELISA Femto (ThermoFisher Scientific, Catalog #37074) working solution was added to the plates ([…]), and the signal was read using a luminometer at 425 nm.

EC50, Sclerostin-neutralisation activity in HEK293/TCF/LEF/Wnt1 cells (luciferase reporter) (human Sclerostin) [nM]	EC50 [1] [nM]	Binder
63.4	0.07	51E8D4 (antibody, V domains shown, Murine monoclonal antibody from a hybridoma) VH: QVQLQQSGAELVRPGASVTLSCKASGYTFTDFEIHWMKQTPVPGLEWIGAIDPETGGTAYNQKFKGKALLTADKSSSTAYMDLRSLTSEDSAVYFCFSYDYVSYWGQGTLVTVSA VL: not shown
62.8	0.04	94B12D3 (antibody, V domains shown, Murine monoclonal antibody from a hybridoma) VH: QVQLQQSGAELVRPGASVTLSCKASGYTFTDYEIHWVKQTPVHGLEWIGAIDPETGGTAYNQKFKAKAILTADRSSSTAYMELRSLTSEDSAVYYSFSYDYVSYWGQGTLVTVSA VL: not shown
59.6	0.01	81B2B6 (antibody, V domains shown, Murine monoclonal antibody from a hybridoma) VH: QVQLQQSGAELVRPGASVTLSCKASGYTFTDYEMHWVKQTPVHGLEWIGAIDPETGGTAYNQKFKAKAILTADRSSSTAYMELRSLTSEDSAVYYCFSYDYVSYWGQGTLVTVSA VL: not shown
59.4	0.02	84F2D5 (antibody, V domains shown, Murine monoclonal antibody from a hybridoma) VH: QVQLQQSGAELVRPGASVTLSCKASGYTFTDFEIHWLKQTPVPGLEWIGAIDPETGGTAYNQKFKGKALLTADKSSSTAYMELRSLTSEDSAVYYCFSYDYVSYWGQGTLVTVSA VL: not shown
67.4	0.04	71G6G8 (antibody, V domains shown, Murine anti-Sclerostin monoclonal antibody) VH: QAQLQQSGAELVRPGASVTLSCKASGYTFTDYEIHWVKQTPVHGLEWIGAIDPETGGTAYNQKFKGKAILTADRSSSTAYLELRSLTSEDSAVYYCFSYDYVTYWGQGTLVTVTA VL: not shown
64.2	0.09	56E5C10 (antibody, V domains shown, Murine monoclonal antibody from a hybridoma) VH: QVQLQQSGAELVRPGASVTLSCKASGYTFTDFEMHWVKQTPVHGLEWIGAIDPETGGTAYNQKFTAKAILTADRSSSTAYMELRSLTSEDSAVYYCFSYDYVSYWGQGTLVTVSA VL: not shown
55.4	0.04	97C11D7 (antibody, V domains shown, Murine monoclonal antibody from a hybridoma) VH: QVQLQQSGAELVRPGASVTLSCKASGYTFTDYEMHWVKQTPVHGLEWIGAIDPETGGSANNQKFKAKAILTADRSSSTAYMELRSLTSEDSAVYYCFSYDYVSYWGQGTLVTVSA VL: not shown
